In assay [1] the target is recombinant neurturin (human mature amino acid sequence) (human). The experiment in a line: plate binding assay: ligand coated, soluble receptor body titrated, anti-human Fc-HRP, A450; apparent Kd.
In assay [2] the target is recombinant human artemin protein (human). Described as above.
The target of assay [3] is recombinant GDNF (human mature amino acid sequence) (human). Described as above.
The test system of assay [4] is SH-SY5Y neuroblastoma cell line. The experiment in a line: Differentiation of SH-SY5Y neuroblastoma cells. Type of assay: cell-based. Particulars: 10 μM, three days after factor addition, FIG. 8B. The procedure:
In one experiment, cells from the SH-SY5Y neuroblastoma cell line were plated at 2×10^5 cells/ml/well in 12-well tissue culture plates. After one day in culture cells were either left untreated (Cn) or stimulated with 50 ng/ml artemin (ART) or 10 μM retinoic acid (RA), a known inducer of differentiation of SH-SYSY cells. Three days after factor addition, differentiation was assessed and cells were photographed.

For assay [5], the system named is CHP134 neuroblastoma cell line. The experiment in a line: Responsiveness of a neuroblastoma cell line that does not express RET (CHP134). Type of assay: cell-based. To be noted: data not shown.
For assay [6], the system named is SAN neuroblastoma cell line. The experiment in a line: Responsiveness of a neuroblastoma cell line that does not express RET (SAN). Type of assay: cell-based. To be noted: data not shown.
Assay [7] deals with GFRα2-Fc. Put plainly: Direct binding of soluble GFRα2-Fc receptor body to plate-coated ligand. To be noted: ligand coated at 325 ng/ml, absence of RET, FIG. 9D. The protocol:
To investigate which if any of the known coreceptor(s) artemin can utilize to activate RET, its ability to directly bind to soluble Fc-fusion forms of GFRα1, GFRα2, or GFRα3 was assessed. GFRα1-Fc, GFRα2-Fc and GFRα3-Fc fusion proteins were obtained from R&D Systems. Binding assays were performed similarly to assays previously described (Sanicola et al., Proc. Natl. Acad. Sci., USA 94:6238-6243, 1997). Recombinant GDNF, neurturin, artemin, persephin, or purified bovine serum albumin (BSA; Pierce) were coated to Nunc-Immuno MaxiSorp microtiter plates at 325 ng/ml in TBS (10 mM Tris-HCl pH 7.5, 150 mM NaCl) for 1 hour at 25° C. Plates were washed (3× in TBS/0.03% Tween-20), and then blocked (blocking solution: TBS/1% BSA) for 1 hr at 25° C. Receptor bodies diluted in blocking solution were added and incubated for 2 hr at 25° C., washed 5X, then incubated with 1:10,000 dilution of HRP-conjugated anti-human Fc antibodies in blocking solution (Jackson Immunoresearch) for 45 minutes at 25° C. […] The reaction was stopped by adding an equal volume of 0.5M H2SO4, and color was measured in a plate reader at 450 nm. Non-specific binding of receptor bodies to the plates was measured in BSA coated wells, and this binding was subtracted from all other measurements.

Assay [8] relates to nodose ganglion (NG) neurons. The experiment in a line: Survival of cultured nodose ganglion neurons. It counts as cell-based, rat. To be noted: FIG. 7D. The protocol:
(§1) Each GDNF ligand family member consisted of the human mature amino acid sequence and was produced by standard recombinant DNA methods. Recombinant GDNF, neurturin and persephin were obtained from Genentech while recombinant artemin was produced as described in Example 3.
(§2) The cultures were performed using standard methods described elsewhere (Kotzbauer et al., Neuron 12:763-773, 1994; Kotzbauer et al., Nature 384:467-470, 1996; Milbrandt et al., Neuron 20:245-253, 1998). In brief, for SCG neurons, after dissection and dissociation, neurons were plated on collagen-coated 24-well tissue culture plates and maintained in NGF-containing medium (AM50) for 5 days, after which they were either kept in AM50 or switched to medium containing neutralizing anti-NGF antibodies plus GDNF, neurturin, persephin, artemin, (50 ng/ml where not noted otherwise), or no growth factors. Cultures were maintained for 3 days, after which they were fixed in 4% paraformaldehyde and stained with toluidine blue, and surviving neurons were counted. For nodose ganglion and dorsal root ganglion neuron cultures, dissociated neurons were plated directly into NGF (for dorsal root ganglia), or BDNF (for nodose ganglia, 100 ng/ml) or one of the GDNF ligands in serum-containing medium (AM50 with anti-NGF antibodies), and cells surviving after 3 days in culture were counted as above. Trigeminal ganglia were dissected, dissociated, and plated directly into medium containing NGF or the indicated GDNF ligands, and the number of surviving cells was assessed after 3 days in vitro. For all culture systems, 2-3 independent experiments were performed.

In assay [9] the test system is dorsal root ganglion (DRG) neurons. Put plainly: Survival of cultured dorsal root ganglion neurons. It counts as cell-based, rat. Particulars: 50 ng/ml, 3 days in culture, FIG. 7A. The procedure: as §1, §2
The subject of assay [10] is CHP126 neuroblastoma cell line. The experiment in a line: Responsiveness of a neuroblastoma cell line that does not express RET (CHP126). Type of assay: cell-based. To be noted: data not shown.
Assay [11] relates to GFRα1-Fc. Put plainly: Direct binding of soluble GFRα1-Fc receptor body to plate-coated ligand. To be noted: ligand coated at 325 ng/ml, absence of RET, FIG. 9C. The procedure:
To investigate which if any of the known coreceptor(s) artemin can utilize to activate RET, its ability to directly bind to soluble Fc-fusion forms of GFRα1, GFRα2, or GFRα3 was assessed. GFRα1-Fc, GFRα2-Fc and GFRα3-Fc fusion proteins were obtained from R&D Systems. Binding assays were performed similarly to assays previously described (Sanicola et al., Proc. Natl. Acad. Sci., USA 94:6238-6243, 1997). Recombinant GDNF, neurturin, artemin, persephin, or purified bovine serum albumin (BSA; Pierce) were coated to Nunc-Immuno MaxiSorp microtiter plates at 325 ng/ml in TBS (10 mM Tris-HCl pH 7.5, 150 mM NaCl) for 1 hour at 25° C. Plates were washed (3× in TBS/0.03% Tween-20), and then blocked (blocking solution: TBS/1% BSA) for 1 hr at 25° C. Receptor bodies diluted in blocking solution were added and incubated for 2 hr at 25° C., washed 5X, then incubated with 1:10,000 dilution of HRP-conjugated anti-human Fc antibodies in blocking solution (Jackson Immunoresearch) for 45 minutes at 25° C. Finally, wells were washed 5× and the presence of HRP was assayed by addition of the chromogenic substrate 3,3, 5,5-tetramethylbenzidine for 5 min. The reaction was stopped by adding an equal volume of 0.5M H2SO4, and color was measured in a plate reader at 450 nm. Non-specific binding of receptor bodies to the plates was measured in BSA coated wells, and this binding was subtracted from all other measurements.

Assay [12] has as its system trigeminal ganglion (TG) neurons. Put plainly: Survival of cultured trigeminal ganglion neurons. To be noted: 50 ng/ml, 3 days in vitro, FIG. 7C. Type of assay: cell-based, rat. The procedure:
as §1, §2

The test system of assay [13] is NBL-S neuroblastoma cell line. Put plainly: BrdU cell proliferation assay in NBL-S neuroblastoma cells. To be noted: 50 ng/mL, 30 hrs after factor addition, FIG. 8D. It counts as cell-based. The procedure:
In another experiment, the ability of artemin to induce proliferation of the NBL-S neuroblastoma cell line was examined. NBL-S cells were plated at 5×10^4 cells/well on 48-well plates in standard medium, either without treatment or in the presence of 50 ng/mL of GDNF, artemin, or persephin. Actively dividing cells undergoing DNA synthesis 30 hrs after factor addition were detected using the BrdU (colorimetric) cell proliferation assay kit according to the manufacturer's instructions (Boehringer-Mannheim) and the data are shown in FIG. 8D.

Data on six molecules can be found in patent US20020002269A1, “ARTEMIN, A NEUROTROPHIC FACTOR” (priority 1998, published 2002).

As for GFRα2-Fc fusion protein, the Kd in assay [1] amounted to 3 nM.
On to GFRα3-Fc fusion protein, for which, in [2], the Kd came to 3 nM.
As for GFRα1-Fc fusion protein, the Kd in [1] and in assay [3] was 3 nM in each case.
In the case of `CC1=C(/C=C/C(C)=C/C=C/C(C)=C/C(=O)O)C(C)(C)CCC1` [retinoic acid, all-trans retinoic acid, reference compound], the “differentiation (neurite outgrowth, neuronal morphology) of SH-SY5Y cells” value in assay [4] is on record as “induced strong differentiation responses”.

B1: neurturin: recombinant human mature neurturin obtained from Genentech (protein, UniProt Q99748 96-197, looked up)
Neurturin: ARLGARPCGLRELEVRVSELGLGYASDETVLFRYCAGACEAAARVYDLGLRRLRQRRRLRRERVRAQPCCRPTAYEDEVSFLDAHSRYHTVHELSARECACV
On to B1, for which the “response of CHP134 cells” value in assay [5] was “did not respond”. For the same molecule, the “response of SAN cells” value in [6] is reported as “did not respond”. In addition, the “direct binding of GFRα2-Fc” value in assay [7] is reported as “bound to neurturin”. The “survival of NG neurons” value in assay [8] (50 ng/ml, 3 days in culture) is “supported similar numbers of NG neurons”. Besides, in [8] (GDNF family ligands 50 ng/ml, BDNF 100 ng/ml), the “survival promotion of NG neurons compared with BDNF” value was “equal or greater survival promotion than BDNF”. In [9], the “survival of DRG sensory neurons” value is given as “supported the survival of a subset of sensory neurons”. For the same molecule, in assay [10], the “response of CHP126 cells” value is reported as “did not respond”. Moreover, in [11], the “direct binding of GFRα1-Fc” value was “able to bind to both GDNF and neurturin with similar affinity”. Further, the “survival of TG sensory neurons” value in assay [12] is given as “supported the survival of a subset of sensory neurons”.

B2: persephin: recombinant human mature persephin obtained from Genentech (protein, UniProt O60542 22-156, looked up)
Persephin: WGPDARGVPVADGEFSSEQVAKAGGTWLGTHRPLARLRRALSGPCQLWSLTLSVAELGLGYASEEKVIFRYCAGSCPRGARTQHGLALARLQGQGRAHGGPCCRPTRYTDVAFLDDRHRWQRLPQLSAAACGCGG
Regarding B2, the “proliferation of NBL-S cells (BrdU incorporation)” value in assay [13] was “did not”. In assay [11], the “direct binding of GFRα1-Fc” value is given as “not to persephin or artemin”.
